These results are taken from patent US20200190192A1 (SUTRO BIOPHARMA, published 2020).

Assay [1] has as its target T1, human Tim-3 (Biacore analyte; TIM-3-Fc or TIM-3-HIS, not said which) (human, UniProt Q8TDQ0 22-202).
T1 construct: also called TIM-3 antigen; not shown: Fc or HIS tag
Briefly: kinetics; method and analyte not given.

Assay [2] deals with T2, human Tim-3 expressed on the cell surface (human, UniProt Q8TDQ0 22-301).
T2 construct: also called hTim-3; Human Tim-3 (CHO)
Kind of assay: cell binding, CHO-human Tim-3 cells.

For assay [3], the target named is T3, cynomolgus Tim-3 expressed on CHO cells (cynomolgus monkey).
T3 construct: also called cTim-3; Cyno Tim-3 (CHO)
T3 chain: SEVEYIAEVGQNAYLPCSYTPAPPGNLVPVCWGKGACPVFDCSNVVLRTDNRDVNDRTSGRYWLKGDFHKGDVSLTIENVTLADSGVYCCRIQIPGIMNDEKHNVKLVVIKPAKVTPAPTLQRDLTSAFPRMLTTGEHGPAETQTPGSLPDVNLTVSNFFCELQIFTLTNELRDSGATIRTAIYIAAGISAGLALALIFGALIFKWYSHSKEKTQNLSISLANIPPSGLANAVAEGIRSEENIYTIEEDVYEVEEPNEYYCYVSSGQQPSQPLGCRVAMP
Briefly: cell binding, CHO-cyno Tim-3 cells.

Assay [4] addresses T4, recombinant human Tim-3-Fc (R&D Systems, 2365-TM) (human, UniProt Q8TDQ0 22-202, biotinylated in the Galectin-9 competition ELISA (sites not given)).
T4 construct: Bought protein; also called huTim-3-Fc; biotinylated Tim-3-Fc; not shown: Fc of the bought fusion protein
Briefly: competition ELISA, biotin-Tim-3-Fc vs coated Galectin-9. (ELISA stands for enzyme-linked immunosorbent assay.)

The target in assay [5] is T5, recombinant cynomolgus Tim-3-Fc (R&D Systems, 7914-TM) (cynomolgus monkey).
T5 construct: Bought protein; also called cyTim-3-Fc; Cyno Tim-3-Fc; not shown: Fc of the bought fusion protein
T5 chain: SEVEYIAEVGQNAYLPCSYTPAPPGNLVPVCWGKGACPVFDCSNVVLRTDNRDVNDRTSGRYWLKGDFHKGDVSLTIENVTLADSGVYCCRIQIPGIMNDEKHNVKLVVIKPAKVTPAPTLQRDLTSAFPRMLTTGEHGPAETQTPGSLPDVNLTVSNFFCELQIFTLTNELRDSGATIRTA
Briefly: ELISA, coated cyno Tim-3-Fc.

The target of assay [6] is T4, recombinant human Tim-3-Fc (R&D …). Briefly: ELISA, coated human Tim-3-Fc.
The target is the same in assay [7]. Briefly: SPR Biacore, human Tim-3-Fc. (SPR reads the build-up and loss of mass on a sensor chip optically.)
For assay [8], the target named is T2, human Tim-3 expressed on the cell …. Briefly: flow cytometry, CHO-human Tim-3 cells. (In flow cytometry, cells or beads pass a laser one at a time.)
For assay [9] the target is unchanged. Briefly: cell binding (flow cytometry; cells not given).
The target in assay [10] is T1, human Tim-3 (Biacore analyte; TIM-3-Fc …). Briefly: SPR Biacore, human Tim-3 (Fc or HIS not said).
Assay [11] concerns the target T4, recombinant human Tim-3-Fc (R&D …). Briefly: AlphaLISA bridging: Tim-3-Fc acceptor beads + PD-1 donor beads (signal needs both).
Assay [12] has as its target T3, cynomolgus Tim-3 expressed on CHO cells. Briefly: flow cytometry, CHO-cyno Tim-3 cells.
Assay [13] concerns the target T2, human Tim-3 expressed on the cell …. Briefly: flow cytometry, CHO-human Tim-3 cells. The source holds these as a separate data set.
The target of assay [14] is T6, biotinylated recombinant human PD-1 (AcroBiosystems) (human, UniProt Q15116 25-167, limits assumed, biotinylated (sites not given)).
T6 construct: Bought protein; also called biotinylated PD-1
Kind of assay: competition, flow cytometry: biotin-PD-1 binding to CHO-human PD-L1 cells.

Assay [15] deals with T7, human PD-1 expressed on CHO cells (human, UniProt Q15116 25-288).
T7 construct: also called hPD-1; CHO-hPD-1
Briefly: flow cytometry, CHO-human PD-1 cells.

Assay [16] deals with T4, recombinant human Tim-3-Fc (R&D …). Briefly: competition ELISA, biotin-Tim-3-Fc vs coated Galectin-9. The source holds these as a separate data set.
Assay [17] has as its target T3, cynomolgus Tim-3 expressed on CHO cells. Kind of assay: flow cytometry, CHO-cyno Tim-3 cells.

Read-outs that look alike come from different tables or passages of the source.

In general, Kd refers to the equilibrium constant for the complex coming apart. The term koff denotes a measure of how fast the partners let go of each other. In general, kon refers to the second-order rate constant of association. Broadly, the IC50 is the point on the concentration scale where inhibition reaches its midpoint. As usually defined, the EC50 is the concentration needed to bring the measured effect to its halfway point.

B1: Mouse hybridoma clone 2D5 (antibody, V domains shown)
VH: EVQLQQSGPELVKPGTSMKISCRASGYPFIGYTMNWVKQSHGGNLEWIGLINPYNGITTYNQKFKGRATLSVDTSSTIAYMELLSLTSDDSAEYYCARSFFYGSSNDWLVYWGQGTLVTVSA
VL: DVLMTQTPLSLPVSLGDQASISCRSSQSIVHTNGNTYLEWYLQKPGQSPKLLIYKVSNRFSGVPDRFSGSGSGTDFTLKISRVEAEDLGVYYCFQGSHVPWTFGGGTELEIK
notes: Mouse antibody; also called 421.51.2.2D5.5E9
In [1], B1 returned a Kd of 0.431 nM, a koff of 0.000166 s⁻¹ and a kon of 386000 M⁻¹ s⁻¹. The binding result in assay [2] was “binds”. The binding result in assay [3] was “no binding”.

B2: SRP1497-A05 (antibody, V domains shown)
VH: EVQLVESGGGLVQPGGSLRLSCAASGFNISNYAIHWVRQAPGKGLEWVADITPDGGYTDYADSVKDRFTISADTSKNTAYLQMNSLRAEDTAVYYCARGYVYRMWDSFDYWGQGTLVTVSS
VL: not shown
notes: IgG with trastuzumab LC; HIS- and FLAG-tagged
In the case of B2, the IC50 in [4] turned out to be 1.1 nM. Moreover, the EC50 in [5] was 6.19 nM; in assay [6], 0.24 nM. Moreover, the Kd was 2.27 nM in assay [7], 0.5 nM in assay [8], 5.6 nM in assay [9] and 64.7 nM in [10]. The values for the koff in assay [7] and in [10] were 0.000458 s⁻¹ and 0.0219 s⁻¹, respectively. Moreover, the results for the kon in assay [7] and in assay [10] were 202000 M⁻¹ s⁻¹ and 338000 M⁻¹ s⁻¹, respectively.

B3: 1353-G10-scFv × 1649-A01-Fab (bispecific antibody, V domains shown)
VH 1: EVQLVQSGAEVKKPGASVKVSCKASGYRFPHYGISWVRQAPGQGLEWMGWISAYNGNTNYAQKLQGRVTMTTDTSTNTAYMELRSLRSDDTAVYYCARDVDYGTGSGYWGQGTLVTVSS
VL 1: SYELTQPPSVSVSPGQTARITCSGDALPKQYAYWYQQKPGQAPVMVIYKDTERPSGIPERFSGSSSGTKVTLTISGVQAEDEADYYCQSADNSITYRVFGGGTKVTVL
VH 2: EVQLVESGGGLVQPGGSLRLSCAASGFNISRYYIHWVRQAPGKGLEWVAGITPVRGYTEYADSVKDRFTISADTSKNTAYLQMNSLRAEDTAVYYCARGYVYRMWDSYDYWGQGTLVTVSS
VL 2: not shown
notes: scFv-Fc × Fab bi-specific; also called Sample C; protein sample C
For the molecule B3, in assay [11], the EC50 was found to be 0.05 nM. In addition, the Kd came to 29 nM in assay [12], 4.4 nM in assay [13] and 1.3 nM in [15]. The IC50 in assay [14] is 11 nM.

B4: SRP1497-A01 (antibody, V domains shown)
VH: EVQLVESGGGLVQPGGSLRLSCAASGFNISNYAIHWVRQAPGKGLEWVADITPDGGYTDYADSVKGRFTISADTSKNTAYLQMNSLRAEDTAVYYCARGYVYRMWDSFDYWGQGTLVTVSS
VL: not shown
notes: IgG with trastuzumab LC, cell-free expressed; constructs were HIS- and FLAG-tagged
For B4, in assay [4], the IC50 was determined as 0.8 nM. Besides, the EC50 in assay [5] came to 22.6 nM. The EC50 in [6] was 0.3 nM. For the same molecule, in [7], the Kd turned out to be 2.15 nM, the koff was determined as 0.000425 s⁻¹ and the kon was 197000 M⁻¹ s⁻¹. In addition, the affinity in assay [9], expressed as Kd, was 1.17 nM.

B5: SRP1497-A02 (antibody, V domains shown)
VH: EVQLVESGGGLVRPGGSLRLSCAASGFNISNYAIHWVRQAPGKGLEWVADITPDGGYTDYADSVKGRFTISADTSKNTAYLQMNSLRAEDTAVYYCARGYVYRMWDSFDYWGQGTLVTVSS
VL: not shown
notes: as for B2
As to B5, in [4], the IC50 turned out to be 1 nM. For the same molecule, the EC50 in assay [5] was found to be 13.7 nM. For the same molecule, in [6], the EC50 came to 0.34 nM. For the same molecule, in assay [7], the Kd came out at 2.95 nM, the koff is 0.000544 s⁻¹ and the kon amounted to 185000 M⁻¹ s⁻¹. The Kd in assay [9] came to 1.54 nM.

B6: SRP1649-F06 (antibody, V domains shown)
VH: EVQLVESGGGLVQPGGSLRLSCAASGFNIGNYAIHWVRQAPGKGLEWVADITPGQGYTEYADSVKDRFTISADTSKNTAYLQMNSLRAEDTAVYYCARGYVYRMWDSYDYWGQGTLVTVSS
VL: not shown
notes: as for B2
As for B6, in [16], the IC50 is 0.63 nM. The same molecule registered a Kd in [8] of 0.2 nM. Moreover, in assay [10], the Kd amounted to 17.3 nM, the koff was 0.00393 s⁻¹ and the kon worked out at 227000 M⁻¹ s⁻¹. In addition, the Kd in [17] came out at 5.6 nM.

B7: SRP1649-A01 (antibody, V domains shown)
VH: EVQLVESGGGLVQPGGSLRLSCAASGFNISRYYIHWVRQAPGKGLEWVAGITPVRGYTEYADSVKDRFTISADTSKNTAYLQMNSLRAEDTAVYYCARGYVYRMWDSYDYWGQGTLVTVSS
VL: not shown
notes: as for B2
B7: the IC50 in [16] stood at 0.26 nM. In addition, the Kd was 0.4 nM in assay [8], 17.4 nM in assay [10] and 0.5 nM in [17]. The koff in assay [10] stood at 0.00117 s⁻¹. This molecule also registered a kon in assay [10] of 67100 M⁻¹ s⁻¹.

B8: Mouse hybridoma clone 22E11 (antibody, V domains shown)
VH: QVQLKESGPDLVAPSQSLSITCTVSGFSLTSYGVHWVRQPPGKGLEWLVVIWSDGSTTYNSALKSRLTISKDNSKSQVFLKMNSLQTDDTAMYYCARQGGYRYDDAMDYWGQGTSVAVSS
VL: DIVLTQSPASLAVSLGQRATISCKASQSVDYDGNSYVNWYQQKPGQPPKLLIYAASNLESGIPARFSGSGSGTDFTLNIHPVEEEDAATYYCQQSNEDPYTFGGGTKLEIK
notes: Mouse antibody; also called m22E11; 250.180.2.22E11
In [1], B8 gave a Kd of 1.5 nM, a koff of 0.000334 s⁻¹ and a kon of 223000 M⁻¹ s⁻¹. Further, the binding result in [2] was “binds”. Also, the binding result in [3] was “binds”.
